According to patent US20100119506A1 (published 2010):

What was measured:
Human PAR-2 on cells [1] = target: T1, Human PAR-2 on cells (human, UniProt P55085 26-397); assay: cell-based or functional assay
T1 sequence: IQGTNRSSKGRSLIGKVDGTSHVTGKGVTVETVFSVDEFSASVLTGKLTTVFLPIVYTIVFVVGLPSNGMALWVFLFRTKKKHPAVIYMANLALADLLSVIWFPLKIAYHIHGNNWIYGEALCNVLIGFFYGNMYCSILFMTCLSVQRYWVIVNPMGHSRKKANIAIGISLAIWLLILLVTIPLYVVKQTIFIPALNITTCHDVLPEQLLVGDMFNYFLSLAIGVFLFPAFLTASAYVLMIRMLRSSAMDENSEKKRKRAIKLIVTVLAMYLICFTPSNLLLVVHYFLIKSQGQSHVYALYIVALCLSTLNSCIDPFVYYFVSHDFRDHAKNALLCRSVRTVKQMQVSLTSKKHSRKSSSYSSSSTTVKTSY

[2] = target: T2, Mouse PAR-2 (endogenous, LLC cells and mouse aortic rings) (mouse, UniProt P55086 39-399); assay: cell-based or functional assay
T2 sequence (looked up): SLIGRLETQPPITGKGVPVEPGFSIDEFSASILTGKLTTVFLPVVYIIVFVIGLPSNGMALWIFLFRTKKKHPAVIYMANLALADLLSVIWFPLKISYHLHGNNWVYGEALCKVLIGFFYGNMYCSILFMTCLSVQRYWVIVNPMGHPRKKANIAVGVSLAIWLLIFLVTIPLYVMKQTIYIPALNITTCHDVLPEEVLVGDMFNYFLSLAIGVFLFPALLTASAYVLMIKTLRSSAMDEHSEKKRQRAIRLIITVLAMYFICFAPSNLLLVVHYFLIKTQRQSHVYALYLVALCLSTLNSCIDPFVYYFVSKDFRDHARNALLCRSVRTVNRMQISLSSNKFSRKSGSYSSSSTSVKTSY

[3] = target: T3, Rat PAR-2 (endogenous, ARIP cells and rat aortic rings) (rat, UniProt Q63645 37-397); assay: cell-based or functional assay
T3 sequence (looked up): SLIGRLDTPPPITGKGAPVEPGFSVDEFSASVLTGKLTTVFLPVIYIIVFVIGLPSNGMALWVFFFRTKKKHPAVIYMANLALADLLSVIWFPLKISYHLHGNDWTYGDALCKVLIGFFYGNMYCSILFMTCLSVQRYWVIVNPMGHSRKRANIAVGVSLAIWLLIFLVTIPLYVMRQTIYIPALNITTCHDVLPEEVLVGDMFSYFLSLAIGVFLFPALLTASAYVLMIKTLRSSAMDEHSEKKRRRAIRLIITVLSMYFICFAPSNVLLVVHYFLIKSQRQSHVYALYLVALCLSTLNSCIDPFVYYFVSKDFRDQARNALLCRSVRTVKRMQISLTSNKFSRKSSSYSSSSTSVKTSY

[4] = target: T4, Human PAR-2 peptide (SEQ ID NO:1, Residues 33-54) (human); assay: Kinexa, peptide in solution
T4 peptide: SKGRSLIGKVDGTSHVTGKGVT
Description: (§1) Binding to peptide in solution was determined by Kinexa technology.

Murine PAR-2 peptide [5] = target: T5, Murine PAR-2 peptide (murine); assay: Kinexa, peptide in solution
T5 construct: also called mouse PAR-2 peptide
T5 peptide: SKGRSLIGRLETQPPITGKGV
Description: as §1

Rat PAR-2 peptide [6] = target: T6, Rat PAR-2 peptide (rat); assay: Kinexa, peptide in solution
T6 peptide: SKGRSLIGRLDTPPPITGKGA
Description: as §1

Cynomolgus PAR-2 peptide = target: T7, Cynomolgus PAR-2 peptide (cynomolgus); assay: Kinexa, peptide in solution
T7 peptide: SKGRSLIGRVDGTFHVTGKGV
Description: as §1

Rat PAR-2 peptide [7] = target: T6, Rat PAR-2 peptide; assay: Rat PAR-2 Peptide Binding (Kinexa)
Description: as §1

Murine PAR-2 peptide [8] = target: T5, Murine PAR-2 peptide; assay: Mouse PAR-2 Peptide Binding (Kinexa)
Description: as §1

Human PAR-2 on cells [9] = target: T1, Human PAR-2 on cells; assay: binding to human PAR-2 transfected HEK293 cells

B1: Antibody Par-B (antibody, V domains shown)
VH: QVELVESGGGLVQPGGSLRLSCAASGFTFSSYAMNWVRQAPGKGLEWVSTISYSSSATSYADSVKGRFTISRDNSKNTLYLQMNSLRAEDTAVYYCARIQNDPMDVWGQGTLVTVSS
VL: DIELTQPPSVSVAPGQTARISCSGDNLGKKYVQWYQQKPGQAPVLVIYDDSNRPSGIPERFSGSNSGNTATLTISGTQAEDEADYYCQTWDYSSIRDETNVFGGGTKLTVLG
notes: Codon-optimized version of Ab4999 made in CHO-DG44
For B1, the “Human Keratinocyte/IL-8 assay IC50” value (Human PAR-2 on cells [1]) was about 100000 pM, the “Mouse Aortic Ring Assay, shift of EC50 (Trypsin)” value [2] was about 5 fold and the “Mouse Cell Line FLIPR IC50” value [2] was about 400 pM. The “Rat Aortic Ring Assay, shift of EC50 (Trypsin)” value [3] was about 8 fold, the Kd [4] was 80 pM and the Kd (Murine PAR-2 peptide [5]) was 80 pM. For the same binder, the Kd (Rat PAR-2 peptide [6]) was 20 pM, the Kd (Cynomolgus PAR-2 peptide) was 40 pM and the Kd (Rat PAR-2 peptide [7]) was 20 pM. For the same binder, the “fold vs. human peptide” value (Rat PAR-2 peptide [7]) was 4 fold, the Kd (Murine PAR-2 peptide [8]) was 80 pM and the “fold vs. human peptide” value (Murine PAR-2 peptide [8]) was 1 fold. The EC50 (Human PAR-2 on cells [9]) was about 300 pM.
